In patent publication US20050013803A1 (published 2005):

Legend:
Assay in all cases: co-immunoprecipitation with anti-Taz antibody from infected BMK cells, Western blot
[1] = target: T1, polyoma virus large T antigen, wild-type (strain PTA), full length (murine polyoma virus, strain PTA)
T1 construct: mature; also called normal large T antigen; WT large T antigen

[2] = target: T2, polyoma virus small T antigen, wild-type (murine polyoma virus)
T2 construct: also called sT

[3] = target: T3, polyoma virus middle T antigen, wild-type (murine polyoma virus)
T3 construct: also called mT
T3 sequence (P0DOJ8 whole entry): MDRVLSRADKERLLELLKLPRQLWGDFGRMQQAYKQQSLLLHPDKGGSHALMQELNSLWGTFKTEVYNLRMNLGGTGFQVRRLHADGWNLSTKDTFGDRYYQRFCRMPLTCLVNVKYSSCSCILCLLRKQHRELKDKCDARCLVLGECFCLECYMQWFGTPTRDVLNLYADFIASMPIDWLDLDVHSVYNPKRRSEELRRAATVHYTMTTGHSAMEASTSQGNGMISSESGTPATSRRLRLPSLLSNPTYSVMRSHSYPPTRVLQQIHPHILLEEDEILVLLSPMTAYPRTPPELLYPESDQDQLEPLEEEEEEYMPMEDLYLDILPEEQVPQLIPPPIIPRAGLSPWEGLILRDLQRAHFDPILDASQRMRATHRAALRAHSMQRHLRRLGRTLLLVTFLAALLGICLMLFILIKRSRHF

T2 sequence (P68834 whole entry): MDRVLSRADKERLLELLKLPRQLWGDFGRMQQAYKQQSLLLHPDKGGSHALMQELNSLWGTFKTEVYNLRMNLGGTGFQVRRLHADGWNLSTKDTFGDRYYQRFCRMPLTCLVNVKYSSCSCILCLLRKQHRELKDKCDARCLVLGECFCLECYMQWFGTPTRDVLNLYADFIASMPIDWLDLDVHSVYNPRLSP
T1 sequence (P0DOJ5 whole entry): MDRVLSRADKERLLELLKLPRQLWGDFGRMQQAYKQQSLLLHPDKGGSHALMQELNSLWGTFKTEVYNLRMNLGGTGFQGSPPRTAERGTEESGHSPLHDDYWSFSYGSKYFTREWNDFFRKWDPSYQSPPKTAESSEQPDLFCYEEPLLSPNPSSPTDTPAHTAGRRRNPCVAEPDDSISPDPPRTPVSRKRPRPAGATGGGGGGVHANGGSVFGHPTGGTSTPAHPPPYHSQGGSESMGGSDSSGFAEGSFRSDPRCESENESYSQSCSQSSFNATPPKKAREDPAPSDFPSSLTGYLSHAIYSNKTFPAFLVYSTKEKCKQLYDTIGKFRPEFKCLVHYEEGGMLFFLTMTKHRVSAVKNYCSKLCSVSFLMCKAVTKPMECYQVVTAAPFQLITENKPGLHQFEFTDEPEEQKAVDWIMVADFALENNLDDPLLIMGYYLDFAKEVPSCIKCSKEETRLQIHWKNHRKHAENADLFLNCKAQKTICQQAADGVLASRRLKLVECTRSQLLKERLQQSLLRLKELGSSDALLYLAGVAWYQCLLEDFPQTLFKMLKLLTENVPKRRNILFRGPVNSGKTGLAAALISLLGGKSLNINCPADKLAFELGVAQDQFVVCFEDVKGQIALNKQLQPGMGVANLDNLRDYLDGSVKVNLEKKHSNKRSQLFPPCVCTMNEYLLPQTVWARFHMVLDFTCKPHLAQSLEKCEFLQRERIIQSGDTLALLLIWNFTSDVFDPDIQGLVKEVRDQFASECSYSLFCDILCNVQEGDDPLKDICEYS

B1: murine Taz (transcriptional co-activator with PDZ binding motif) (other, mouse, UniProt Q9EPK5 1-395, looked up)
chain: MNPSSVPHPLPPPGQQVIHVTQDLDTDLEALFNSVMNPKPSSWRKKILPESFFKEPDSGSHSRQSSTDSSGGHPGPRLAGGAQHVRSHSSPASLQLGTGAGAAGGPAQQHAHLRQQSYDVTDELPLPPGWEMTFTATGQRYFLNHIEKITTWQDPRKVMNQPLNHVNLHPSITSTSVPQRSMAVSQPNLAMNHQHQQVVATSLSPQNHPTQNQPTGLMSVPNALTTQQQQQQKLRLQRIQMERERIRMRQEELMRQEAALCRQLPMETETMAPVNTPAMSTDMRSVTNSSSDPFLNGGPYHSREQSTDSGLGLGCYSVPTTPEDFLSNMDEMDTGENSGQTPMTVNPQQTRFPDFLDCLPGTNVDLGTLESEDLIPLFNDVESALNKSEPFLTWL
notes: Endogenous protein immunoprecipitated from mouse cell extracts, or a library clone in yeast; also called mTaz
- relative binding efficiency [1]: 1 ratio large T: middle T: small T
- relative binding efficiency [2]: 100 ratio large T: middle T: small T
- relative binding efficiency [3]: 7 ratio large T: middle T: small T
